Sequences and labels used below:
B1: HDAC6 (parent)
chain: YVHHQALLDVKNIAHQNKFGEDMP
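Also: lentivirally expressed fusions sorted by FACS into six bins by GFP to DsRed ratio, PSI derived from sequencing read proportions per bin multiplied by bin number.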

The variants in the data set derive from B1. The experiment in a line: protein stability index of a GFP-peptide fusion (GPS, HEK-293T) (PSI 1-6); higher = more stable. The settings on record: c terminus: a fixed tail appended.
In the case of YVHHQALDDVKNIAHQNKFGEDMP [L8D], the protein stability index is 2.71.

On to YVHHQALADVKNIAHQNKFGEDMP [L8A], for which the protein stability index is 1.93.

Regarding YVHHQALCDVKNIAHQNKFGEDMP [L8C], the protein stability index was 2.43.

As for YVHHQALHDVKNIAHQNKFGEDMP [L8H], the protein stability index was 2.72.

For the variant YVHHQALIDVKNIAHQNKFGEDMP [L8I], the protein stability index came out at 1.65.

Regarding YVHHQALGDVKNIAHQNKFGEDMP [L8G], the protein stability index turned out to be 2.09.

As to YVHHQALFDVKNIAHQNKFGEDMP [L8F], the protein stability index worked out at 3.34.

Regarding YVHHQALEDVKNIAHQNKFGEDMP [L8E], the protein stability index is 2.87.

YVVHQALLDVKNIAHQNKFGEDMP [H3V]: the protein stability index stood at 2.46.

As for YVPHQALLDVKNIAHQNKFGEDMP [H3P], the protein stability index amounted to 1.65.

YVNHQALLDVKNIAHQNKFGEDMP [H3N]: the protein stability index came to 2.62.

As to YVSHQALLDVKNIAHQNKFGEDMP [H3S], the protein stability index stood at 2.

As for YVWHQALLDVKNIAHQNKFGEDMP [H3W], the protein stability index was determined as 2.41.

As for YVKHQALLDVKNIAHQNKFGEDMP [H3K], the protein stability index was determined as 2.18.

As to YVTHQALLDVKNIAHQNKFGEDMP [H3T], the protein stability index stood at 1.82.

For YVLHQALLDVKNIAHQNKFGEDMP [H3L], the protein stability index was determined as 2.

For YVYHQALLDVKNIAHQNKFGEDMP [H3Y], the protein stability index turned out to be 1.69.

Consider YVQHQALLDVKNIAHQNKFGEDMP [H3Q], for which the protein stability index amounted to 1.78.

Regarding YVRHQALLDVKNIAHQNKFGEDMP [H3R], the protein stability index was 1.39.

For YVMHQALLDVKNIAHQNKFGEDMP [H3M], the protein stability index came to 1.8.

Turning to YVHPQALLDVKNIAHQNKFGEDMP [H4P], the protein stability index was 3.02.

As for YVHGQALLDVKNIAHQNKFGEDMP [H4G], the protein stability index was 1.99.

YVHFQALLDVKNIAHQNKFGEDMP [H4F]: the protein stability index is 2.98.

Regarding YVHCQALLDVKNIAHQNKFGEDMP [H4C], the protein stability index was determined as 1.7.

In the case of YVHMQALLDVKNIAHQNKFGEDMP [H4M], the protein stability index is 1.83.

With YVHQQALLDVKNIAHQNKFGEDMP [H4Q], the protein stability index was 2.61.

For the variant YVHSQALLDVKNIAHQNKFGEDMP [H4S], the protein stability index was 1.64.

As for YVHIQALLDVKNIAHQNKFGEDMP [H4I], the protein stability index amounted to 1.97.

In the case of YVHVQALLDVKNIAHQNKFGEDMP [H4V], the protein stability index stood at 1.95.

As to YVHYQALLDVKNIAHQNKFGEDMP [H4Y], the protein stability index is 1.78.

As to YVHRQALLDVKNIAHQNKFGEDMP [H4R], the protein stability index was determined as 1.74.

On to YVHDQALLDVKNIAHQNKFGEDMP [H4D], for which the protein stability index is 2.64.

Consider YVHNQALLDVKNIAHQNKFGEDMP [H4N], for which the protein stability index turned out to be 1.65.

For YVHWQALLDVKNIAHQNKFGEDMP [H4W], the protein stability index is 3.43.

For the variant YVHKQALLDVKNIAHQNKFGEDMP [H4K], the protein stability index stood at 1.78.

As to YVHLQALLDVKNIAHQNKFGEDMP [H4L], the protein stability index is 2.2.

As for YVHTQALLDVKNIAHQNKFGEDMP [H4T], the protein stability index was 1.47.

As to YVHEQALLDVKNIAHQNKFGEDMP [H4E], the protein stability index was determined as 2.82.

Turning to YVHHRALLDVKNIAHQNKFGEDMP [Q5R], the protein stability index worked out at 2.

For the variant YVHHVALLDVKNIAHQNKFGEDMP [Q5V], the protein stability index is 1.85.

For the variant YVHHGALLDVKNIAHQNKFGEDMP [Q5G], the protein stability index was determined as 1.87.

As to YVHHMALLDVKNIAHQNKFGEDMP [Q5M], the protein stability index is 2.21.

For the variant YVHHWALLDVKNIAHQNKFGEDMP [Q5W], the protein stability index is 3.05.

On to YVHHSALLDVKNIAHQNKFGEDMP [Q5S], for which the protein stability index came to 1.76.

Consider YVHHPALLDVKNIAHQNKFGEDMP [Q5P], for which the protein stability index is 1.71.

YVHHDALLDVKNIAHQNKFGEDMP [Q5D]: the protein stability index amounted to 2.08.

With YVHHYALLDVKNIAHQNKFGEDMP [Q5Y], the protein stability index came out at 2.35.

In the case of YVHHKALLDVKNIAHQNKFGEDMP [Q5K], the protein stability index stood at 2.02.

For the variant YVHHHALLDVKNIAHQNKFGEDMP [Q5H], the protein stability index worked out at 2.19.

Regarding YVHHLALLDVKNIAHQNKFGEDMP [Q5L], the protein stability index amounted to 1.75.

Turning to YVHHTALLDVKNIAHQNKFGEDMP [Q5T], the protein stability index was 1.95.

Regarding YVHHEALLDVKNIAHQNKFGEDMP [Q5E], the protein stability index came to 2.16.

Consider YVHHCALLDVKNIAHQNKFGEDMP [Q5C], for which the protein stability index amounted to 1.36.

On to YVHHAALLDVKNIAHQNKFGEDMP [Q5A], for which the protein stability index is 2.4.

Regarding YVHHNALLDVKNIAHQNKFGEDMP [Q5N], the protein stability index is 1.79.

Turning to YVHHIALLDVKNIAHQNKFGEDMP [Q5I], the protein stability index is 1.88.

Consider YVHHQCLLDVKNIAHQNKFGEDMP [A6C], for which the protein stability index was 1.71.

In the case of YVHHQNLLDVKNIAHQNKFGEDMP [A6N], the protein stability index was found to be 1.84.

Regarding YVHHQTLLDVKNIAHQNKFGEDMP [A6T], the protein stability index worked out at 1.97.

On to YVHHQRLLDVKNIAHQNKFGEDMP [A6R], for which the protein stability index stood at 2.07.

YVHHQDLLDVKNIAHQNKFGEDMP [A6D]: the protein stability index worked out at 2.22.

YVHHQKLLDVKNIAHQNKFGEDMP [A6K]: the protein stability index was 1.64.

Consider YVHHQPLLDVKNIAHQNKFGEDMP [A6P], for which the protein stability index was 1.69.

With YVHHQELLDVKNIAHQNKFGEDMP [A6E], the protein stability index turned out to be 2.17.

In the case of YVHHQWLLDVKNIAHQNKFGEDMP [A6W], the protein stability index is 2.7.

In the case of YVHHQMLLDVKNIAHQNKFGEDMP [A6M], the protein stability index is 1.96.

For the variant YVHHQILLDVKNIAHQNKFGEDMP [A6I], the protein stability index is 3.2.

YVHHQHLLDVKNIAHQNKFGEDMP [A6H]: the protein stability index was determined as 1.86.

For the variant YVHHQFLLDVKNIAHQNKFGEDMP [A6F], the protein stability index was determined as 1.4.

YVHHQLLLDVKNIAHQNKFGEDMP [A6L]: the protein stability index was found to be 1.58.

YVHHQVLLDVKNIAHQNKFGEDMP [A6V]: the protein stability index was 1.86.

Turning to YVHHQQLLDVKNIAHQNKFGEDMP [A6Q], the protein stability index turned out to be 1.86.

Turning to YVHHQGLLDVKNIAHQNKFGEDMP [A6G], the protein stability index came out at 2.65.

Take YVHHQYLLDVKNIAHQNKFGEDMP [A6Y]: the protein stability index came out at 2.07.

Take YVHHQSLLDVKNIAHQNKFGEDMP [A6S]: the protein stability index was 2.41.

Take YVHHQAYLDVKNIAHQNKFGEDMP [L7Y]: the protein stability index worked out at 2.53.

Consider YVHHQACLDVKNIAHQNKFGEDMP [L7C], for which the protein stability index is 1.97.

Consider YVHHQATLDVKNIAHQNKFGEDMP [L7T], for which the protein stability index was determined as 2.18.

With YVHHQAQLDVKNIAHQNKFGEDMP [L7Q], the protein stability index turned out to be 2.14.

In the case of YVHHQASLDVKNIAHQNKFGEDMP [L7S], the protein stability index is 2.31.

On to YVHHQAELDVKNIAHQNKFGEDMP [L7E], for which the protein stability index was found to be 2.88.

Take YVHHQAILDVKNIAHQNKFGEDMP [L7I]: the protein stability index was 1.83.

For the variant YVHHQAGLDVKNIAHQNKFGEDMP [L7G], the protein stability index was found to be 2.33.

Consider YVHHQAKLDVKNIAHQNKFGEDMP [L7K], for which the protein stability index is 1.9.

On to YVHHQANLDVKNIAHQNKFGEDMP [L7N], for which the protein stability index is 2.4.

Regarding YVHHQAALDVKNIAHQNKFGEDMP [L7A], the protein stability index was found to be 1.89.

In the case of YVHHQADLDVKNIAHQNKFGEDMP [L7D], the protein stability index worked out at 2.61.

YVHHQAFLDVKNIAHQNKFGEDMP [L7F]: the protein stability index is 2.39.

For YVHHQARLDVKNIAHQNKFGEDMP [L7R], the protein stability index came out at 1.8.

In the case of YVHHQAHLDVKNIAHQNKFGEDMP [L7H], the protein stability index was found to be 2.25.

With YVHHQAMLDVKNIAHQNKFGEDMP [L7M], the protein stability index was found to be 2.32.

YVHHQAWLDVKNIAHQNKFGEDMP [L7W]: the protein stability index was 2.77.

Take YVHHQAPLDVKNIAHQNKFGEDMP [L7P]: the protein stability index was determined as 2.73.

With YVHHQAVLDVKNIAHQNKFGEDMP [L7V], the protein stability index was 2.21.

Values taken from the supplement of paper PMC10567573.
